Consider 16 substances from publication PMC8808184.

Experiment [1] deals with extracellular region of amyloid precursor protein (APP) fused to human IgG1 Fc or to FcYTS (UniProt P12023). Description: AlphaScreen or HTRF; ectodomain-FcYTS on Strep-Tactin donor beads and ectodomain-Fc on protein A acceptor beads; dialysed HEK293 conditioned media; both tag orientations; 1 h at room temperature; 150 mM NaCl, 20 mM Na-Hepes pH 7.5, 2 mM CaCl2, 2 mM MgCl2, BSA, Triton X-100, Tween-20; a pair counts with signal over background of at least two in each orientation. A general note: In Alpha technology, singlet oxygen from a donor bead excites a nearby acceptor bead.

The target in experiment [2] is E1 domain of zebrafish APPb, biotinylated (zebrafish). Description: BLI; BLItz; biotinylated amyloid E1 domain ([…] nM) immobilised on streptavidin tips, CNTN FN1-FN3 in solution; room temperature; 150 mM NaCl, 10 mM Na-Hepes pH 7.5, 1 mg/ml BSA, 0.02% Tween-20; average constants of the kinetic fit (the paper says koff attained or exceeded the accuracy limits of the instruments). Background: BLI is a label-free optical method that tracks binding on a fibre tip over time.

For experiment [3], the target named is FN1–FN3 region of zebrafish CNTN4 (zebrafish). As to the kind of experiment: BLI; biotinylated zebrafish CNTN4(FN1–FN3) immobilised on streptavidin sensors, E1 domains of zebrafish APPb or APLP2 in solution; Octet K2; KD from the signal at equilibrium.
Experiment [4] addresses E1 domain of zebrafish APPb (zebrafish). Description: BLI; biotinylated E1 domain ([…] nM) immobilised on streptavidin tips, CNTN FN1–FN3 in solution; room temperature; 150 mM NaCl, 10 mM Na-Hepes pH 7.5, 1 mg/ml BSA, 0.02% Tween-20; BLItz or Octet K2; KD from the signal at equilibrium.
Experiment [5] addresses E1 domain of chicken APLP2, biotinylated (chicken). Description: BLI; BLItz; biotinylated amyloid E1 domain ([…] nM) immobilised on streptavidin tips, CNTN FN1-FN3 in solution; room temperature; 150 mM NaCl, 10 mM Na-Hepes pH 7.5, 1 mg/ml BSA, 0.02% Tween-20; average constants of the kinetic fit (the paper says koff attained or exceeded the accuracy limits of the instruments).

Experiment [6] has as its target E1 domain of chicken APP, biotinylated (chicken). Described as above.
Experiment [7] has as its target FN1-FN3 domains of zebrafish CNTN4, biotinylated (zebrafish). Description: BLI; Octet K2; biotinylated FN1-FN3 domains of zebrafish CNTN4 immobilised on streptavidin sensors, E1 domains of zebrafish APPb or APLP2 in solution; average constants of the kinetic fit.
The target is the same in experiment [8]. Description: BLI; Octet K2; biotinylated FN1-FN3 domains of zebrafish CNTN4 immobilised on streptavidin sensors, E1 domains of zebrafish APPb or APLP2 in solution; steady state KD from the maximal signal at equilibrium against concentration.
For experiment [9], the target named is E1 domain of human APLP1, biotinylated (human) (UniProt P51693). Description: BLI; BLItz; biotinylated amyloid E1 domain ([…] nM) immobilised on streptavidin tips, CNTN FN1-FN3 in solution; room temperature; 150 mM NaCl, 10 mM Na-Hepes pH 7.5, 1 mg/ml BSA, 0.02% Tween-20; steady state KD from the maximal signal at equilibrium against concentration.
E1 domain of human APLP1, biotinylated (human), sequence (P51693 50-212): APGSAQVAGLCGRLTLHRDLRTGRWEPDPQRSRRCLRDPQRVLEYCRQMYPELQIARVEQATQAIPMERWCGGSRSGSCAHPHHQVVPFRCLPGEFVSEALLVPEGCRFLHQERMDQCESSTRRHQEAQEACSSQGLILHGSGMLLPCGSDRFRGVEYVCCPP
For experiment [10], the target named is E1 domain of human APP, biotinylated (human) (UniProt P05067). Described as above.
Experiment [11] has as its target E1 domain of human APLP1, biotinylated (human) (UniProt P51693). As to the kind of experiment: BLI; BLItz; biotinylated amyloid E1 domain ([…] nM) immobilised on streptavidin tips, CNTN FN1-FN3 in solution; room temperature; 150 mM NaCl, 10 mM Na-Hepes pH 7.5, 1 mg/ml BSA, 0.02% Tween-20; average constants of the kinetic fit (the paper says koff attained or exceeded the accuracy limits of the instruments).

In experiment [12] the target is E1 domain of human APP, biotinylated (human) (UniProt P05067). The description is as above.
Experiment [13] addresses E1 domain of chicken APP, biotinylated (chicken). Description: BLI; BLItz; biotinylated amyloid E1 domain ([…] nM) immobilised on streptavidin tips, CNTN FN1-FN3 in solution; room temperature; 150 mM NaCl, 10 mM Na-Hepes pH 7.5, 1 mg/ml BSA, 0.02% Tween-20; steady state KD from the maximal signal at equilibrium against concentration.
The target in experiment [14] is E1 domain of mouse APP, biotinylated (mouse) (UniProt P12023). Description: BLI; BLItz; biotinylated amyloid E1 domain ([…] nM) immobilised on streptavidin tips, CNTN FN1-FN3 in solution; room temperature; 150 mM NaCl, 10 mM Na-Hepes pH 7.5, 1 mg/ml BSA, 0.02% Tween-20; average constants of the kinetic fit (the paper says koff attained or exceeded the accuracy limits of the instruments).

For experiment [15], the target named is E1 domain of chicken APLP2 (chicken). As to the kind of experiment: BLI; biotinylated E1 domain ([…] nM) immobilised on streptavidin tips, CNTN FN1–FN3 in solution; room temperature; 150 mM NaCl, 10 mM Na-Hepes pH 7.5, 1 mg/ml BSA, 0.02% Tween-20; BLItz or Octet K2; KD from the signal at equilibrium.
Experiment [16] concerns the target E1 domain of chicken APP (chicken). The description is as above.
For experiment [17], the target named is E1 domain of human APLP2, biotinylated (human) (UniProt Q06481). Description: BLI; BLItz; biotinylated amyloid E1 domain ([…] nM) immobilised on streptavidin tips, CNTN FN1-FN3 in solution; room temperature; 150 mM NaCl, 10 mM Na-Hepes pH 7.5, 1 mg/ml BSA, 0.02% Tween-20; average constants of the kinetic fit (the paper says koff attained or exceeded the accuracy limits of the instruments).
E1 domain of human APLP2, biotinylated (human), sequence (Q06481 46-205): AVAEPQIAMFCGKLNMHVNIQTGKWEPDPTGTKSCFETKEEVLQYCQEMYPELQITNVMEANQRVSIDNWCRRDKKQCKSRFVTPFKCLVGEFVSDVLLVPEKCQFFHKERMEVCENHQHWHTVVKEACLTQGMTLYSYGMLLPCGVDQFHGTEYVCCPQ

The target is the same in experiment [18]. Description: BLI; BLItz; biotinylated amyloid E1 domain ([…] nM) immobilised on streptavidin tips, CNTN FN1-FN3 in solution; room temperature; 150 mM NaCl, 10 mM Na-Hepes pH 7.5, 1 mg/ml BSA, 0.02% Tween-20; steady state KD from the maximal signal at equilibrium against concentration.

FN1-FN3 region of mouse CNTN3, sequence (Q07409 20-1002): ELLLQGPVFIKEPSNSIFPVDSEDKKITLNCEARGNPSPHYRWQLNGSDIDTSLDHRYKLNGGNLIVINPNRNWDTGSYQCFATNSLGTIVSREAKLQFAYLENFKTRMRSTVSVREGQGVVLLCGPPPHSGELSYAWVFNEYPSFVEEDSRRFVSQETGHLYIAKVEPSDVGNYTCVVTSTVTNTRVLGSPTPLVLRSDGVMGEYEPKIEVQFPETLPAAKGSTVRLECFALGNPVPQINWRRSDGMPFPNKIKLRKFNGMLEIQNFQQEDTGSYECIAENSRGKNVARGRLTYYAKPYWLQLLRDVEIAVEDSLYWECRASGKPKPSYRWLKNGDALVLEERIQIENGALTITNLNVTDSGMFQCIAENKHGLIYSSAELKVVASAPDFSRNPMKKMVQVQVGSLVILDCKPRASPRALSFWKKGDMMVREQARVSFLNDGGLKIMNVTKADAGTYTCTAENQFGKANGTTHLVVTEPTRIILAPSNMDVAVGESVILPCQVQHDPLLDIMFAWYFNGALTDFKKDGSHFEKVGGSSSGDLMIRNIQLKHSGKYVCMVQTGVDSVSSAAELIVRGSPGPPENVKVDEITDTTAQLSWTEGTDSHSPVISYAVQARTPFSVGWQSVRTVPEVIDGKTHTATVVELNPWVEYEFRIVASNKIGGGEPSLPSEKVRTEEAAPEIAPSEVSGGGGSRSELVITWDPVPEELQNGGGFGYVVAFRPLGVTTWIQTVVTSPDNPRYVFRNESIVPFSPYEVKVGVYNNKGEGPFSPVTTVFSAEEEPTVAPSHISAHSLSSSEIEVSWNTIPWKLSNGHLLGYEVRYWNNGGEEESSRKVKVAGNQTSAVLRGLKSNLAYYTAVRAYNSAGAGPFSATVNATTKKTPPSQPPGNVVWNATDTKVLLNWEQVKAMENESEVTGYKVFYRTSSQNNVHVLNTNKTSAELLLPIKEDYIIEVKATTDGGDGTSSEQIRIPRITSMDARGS
ectodomain of contactin 4 (CNTN4) fused to human IgG1 Fc or to FcYTS, sequence (Q69Z26 19-1000): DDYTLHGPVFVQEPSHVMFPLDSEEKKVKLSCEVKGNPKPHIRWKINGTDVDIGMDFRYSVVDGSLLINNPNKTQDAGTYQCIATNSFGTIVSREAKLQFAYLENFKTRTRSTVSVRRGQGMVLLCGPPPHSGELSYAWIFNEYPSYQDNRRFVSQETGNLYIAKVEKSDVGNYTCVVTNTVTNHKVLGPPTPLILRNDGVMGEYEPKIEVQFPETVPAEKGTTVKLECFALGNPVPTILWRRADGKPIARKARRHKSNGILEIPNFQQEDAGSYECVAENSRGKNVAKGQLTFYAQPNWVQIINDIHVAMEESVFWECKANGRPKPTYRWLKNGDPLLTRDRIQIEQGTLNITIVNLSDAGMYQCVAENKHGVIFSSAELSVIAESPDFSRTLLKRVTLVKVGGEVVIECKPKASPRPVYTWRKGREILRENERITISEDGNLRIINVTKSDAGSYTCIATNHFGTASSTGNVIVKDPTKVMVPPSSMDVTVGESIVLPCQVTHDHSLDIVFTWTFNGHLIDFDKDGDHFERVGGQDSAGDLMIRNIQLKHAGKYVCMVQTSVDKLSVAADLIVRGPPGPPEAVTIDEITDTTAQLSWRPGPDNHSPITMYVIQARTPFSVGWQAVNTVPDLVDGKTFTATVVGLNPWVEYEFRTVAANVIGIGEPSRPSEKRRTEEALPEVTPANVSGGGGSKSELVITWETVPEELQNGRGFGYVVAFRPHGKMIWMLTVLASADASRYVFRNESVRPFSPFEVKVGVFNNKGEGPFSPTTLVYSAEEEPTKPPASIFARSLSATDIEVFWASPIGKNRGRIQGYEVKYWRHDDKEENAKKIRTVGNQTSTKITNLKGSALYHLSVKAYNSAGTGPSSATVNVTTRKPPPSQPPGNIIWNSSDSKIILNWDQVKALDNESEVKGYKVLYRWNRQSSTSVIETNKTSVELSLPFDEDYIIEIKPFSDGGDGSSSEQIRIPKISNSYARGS

In experiment [1], “ectodomain of contactin 4 (CNTN4) fused to human IgG1 Fc or to FcYTS (from UniProt Q69Z26 19-1000) (Fc fusion)” yielded a luminescent signal of 1.56e+06 and a luminescent signal divided by the signal of APP-FcYTS with Fc only of 848.
A word on the koff: it is a measure of how fast the partners let go of each other. A low value points to slow dissociation. Broadly, the kon is the second-order rate constant of association. Lower therefore signals slow association. In [2], “FN1-FN3 region of zebrafish CNTN5 (domain or fragment)” had a Kd of 64.4 µM, an off-rate (koff) of 0.59 s⁻¹ and a kon of 9560 M⁻¹ s⁻¹.
With “E1 domain of zebrafish APLP2 (domain or fragment)”, the Kd in [3] came out at 21.4 µM.
As to “FN1–FN3 region of zebrafish CNTN5 (domain or fragment)”, the Kd in experiment [4] turned out to be 26.8 µM.
In experiment [5], “FN1-FN3 region of chicken CNTN4 (domain or fragment)” had a Kd of 26.6 µM, a koff of 0.33 s⁻¹ and an on-rate (kon) of 21600 M⁻¹ s⁻¹. In addition, in experiment [6], the Kd amounted to 8.2 µM, the koff is 0.19 s⁻¹ and the association rate constant (kon) turned out to be 33900 M⁻¹ s⁻¹.
The substance “E1 domain of zebrafish APPb (domain or fragment)” displayed a Kd in [3] of 0.4 µM. For the same substance, in experiment [7], the Kd is 0.11 µM, the koff is 0.03 s⁻¹ and the kon is 170000 M⁻¹ s⁻¹. Also, the Kd in [8] stood at 0.401 µM.
As to “FN1-FN3 region of human CNTN3 (from UniProt Q9P232 20-1002) (domain or fragment)”, the Kd in experiment [9] is 9.1 µM; in [10] it was 63.3 µM; in experiment [11] it was 4.5 µM; in [12] it was 403 µM. The koff in experiment [11] came to 0.1 s⁻¹; in experiment [12], 0.79 s⁻¹. Further, the results for the kon in [11] and in experiment [12] were 2190 M⁻¹ s⁻¹ and 2560 M⁻¹ s⁻¹, respectively.
“FN1-FN3 region of chicken CNTN4 T751A, V752A (domain or fragment)” registered a Kd in experiment [13] of 20.9 µM. Also, in [6], the Kd amounted to 441 µM, the dissociation rate constant (koff) worked out at 0.38 s⁻¹ and the kon amounted to 10300 M⁻¹ s⁻¹.
As for “FN1-FN3 region of mouse CNTN3 (from UniProt Q07409 20-1002) (domain or fragment)”, in experiment [14], the Kd worked out at 2.9 µM, the koff was determined as 0.15 s⁻¹ and the association rate constant (kon) is 56200 M⁻¹ s⁻¹.
In experiment [13], “FN1-FN3 region of chicken CNTN3 (domain or fragment)” gave a Kd of 46.8 µM. For the same substance, in [6], the Kd was 182 µM, the koff was determined as 0.9 s⁻¹ and the on-rate (kon) amounted to 7250 M⁻¹ s⁻¹.
Turning to “FN1–FN3 region of chicken CNTN4 (domain or fragment)”, the results for the Kd in experiment [15] and in experiment [16] were 28.2 µM and 5.4 µM, respectively.
For “FN1-FN3 region of human CNTN4 (from UniProt Q8IWV2 19-1000) (domain or fragment)”, the Kd in experiment [9] turned out to be 1.5 µM; in [10] it was 8 µM; in [11] it was 0.4 µM; in experiment [17], 4.8 µM; in experiment [12], 18.7 µM. In addition, the off-rate (koff) in [11] came to 0.03 s⁻¹; in [17], 0.2 s⁻¹; in experiment [12] it was 0.33 s⁻¹. Besides, the kon in [11] stood at 64500 M⁻¹ s⁻¹; in [17], 43000 M⁻¹ s⁻¹; in experiment [12], 19200 M⁻¹ s⁻¹.
In experiment [16], “FN1–FN3 region of chicken CNTN4, Y781A and E786A (domain or fragment)” showed a Kd of 115 µM.
In the case of “FN1-FN3 region of chicken CNTN4 Y781A, E786A (domain or fragment)”, the Kd in experiment [13] was 115 µM. Moreover, in experiment [6], the Kd is 330 µM, the koff amounted to 0.59 s⁻¹ and the on-rate (kon) came out at 5450 M⁻¹ s⁻¹.
As for “FN1–FN3 region of chicken CNTN4, T751A and V752A (domain or fragment)”, the fold reduction in affinity against wild-type chicken CNTN4 in experiment [16] stood at 4 fold.
For “FN1-FN3 region of human CNTN5 (from UniProt O94779 19-1072) (domain or fragment)”, the Kd is 10.9 µM in [9], 38.6 µM in [18], 9.8 µM in experiment [11] and 36.6 µM in [17]. Moreover, the koff in experiment [11] was 0.17 s⁻¹; in [17], 0.37 s⁻¹. For the same substance, the kon is 17700 M⁻¹ s⁻¹ in [11] and 9440 M⁻¹ s⁻¹ in [17].
